Data as given in patent publication US20260184777A1 (BEIJING SUNGEN BIOMEDICAL TECHNOLOGY, published 2026).

Target: T1, human S100A8/A9 heterodimeric antigen, His-tagged (hS100A8/A9-His) (human, UniProt P05109 1-93; P06702 1-114)
T1 sequence 1: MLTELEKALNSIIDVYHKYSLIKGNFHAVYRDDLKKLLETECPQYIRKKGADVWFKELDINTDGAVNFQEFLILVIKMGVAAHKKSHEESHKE
T1 sequence 2: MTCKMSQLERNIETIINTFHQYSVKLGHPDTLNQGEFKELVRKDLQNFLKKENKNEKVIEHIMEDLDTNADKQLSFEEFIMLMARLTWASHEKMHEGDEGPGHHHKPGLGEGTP
Experiment: cell-based or functional assay

Binder | Relative IC50 (IC50 relative to CM-1), IL-6 release from hS100A8/A9-activated human PBMCs
CM-85 (antibody, human IgG4 S228P, lambda, V domains shown) VH: EVQLVESGGGLVQPGGSLRLSCAASGYTFSSYAMSWVRQAPGKGLEWVSAISGSGGSTYYAASVKGRFTISRDNSKNTLYLQMNSLRAEDTAVYYCARKYRPSRVFDAWGQGTLVTVSS VL: SYELTQPPSVSVAPGQTARITCSGDALGDKYASWYQQKPGQAPVLVIYEDAKRPSGIPERFSGSNSGNTATLTISGTQAEDEADYYCQSNDADAVWVFGGGTKLTVLG | 1.86 relative to CM-1
CM-91 (antibody, human IgG4 S228P, lambda, V domains shown) VH: EVQLVESGGGLVQPGGSLRLSCAASGFTFSDYAMSWVRQAPGKGLEWVSAISGSGGSTYYAASVKGRFTISRDNSKNTLYLQMNSLRAEDTAVYYCARKYRPSRVFDAWGQGTLVTVSS VL: SYELTQPPSVSVAPGQTARITCSGDALHDKYAAWYQQKPGQAPVLVIYEDAKRPSGIPERFSGSNSGNTATLTISGTQAEDEADYYCQSNDADAVWVFGGGTKLTVLG | 1.1 relative to CM-1
CM-92 (antibody, human IgG4 S228P, lambda, V domains shown) VH: EVQLVESGGGLVQPGGSLRLSCAASGFTFSDYAMSWVRQAPGKGLEWVSAISGSGGSTYYAASVKGRFTISRDNSKNTLYLQMNSLRAEDTAVYYCARKYRPSRVFDAWGQGTLVTVSS VL: SYELTQPPSVSVAPGQTARITCSGDALHDKYASWYQQKPGQAPVLVIYEDAKRPSGIPERFSGSNSGNTATLTISGTQAEDEADYYCQSNDADAYWVFGGGTKLTVLG | 0.697 relative to CM-1
CM-86 (antibody, human IgG4 S228P, lambda, V domains shown) VH: EVQLVESGGGLVQPGGSLRLSCAASGFTFSSHAMSWVRQAPGKGLEWVSAISGSGGSTYYAASVKGRFTISRDNSKNTLYLQMNSLRAEDTAVYYCARKYRPSRVFDAWGQGTLVTVSS VL: SYELTQPPSVSVAPGQTARITCSGDALGDKYASWYQQKPGQAPVLVIYEDAKRPSGIPERFSGSNSGNTATLTISGTQAEDEADYYCQSNDADAVWVFGGGTKLTVLG | 1.27 relative to CM-1
CM-99 (antibody, human IgG4 S228P, lambda, V domains shown) VH: EVQLVESGGGLVQPGGSLRLSCAASGFTFSDYAMSWVRQAPGKGLEWVSAISGSGGSHYYAASVKGRFTISRDNSKNTLYLQMNSLRAEDTAVYYCARKYRPSRVFDAWGQGTLVTVSS VL: SYELTQPPSVSVAPGQTARITCSGDALGDKYASWYQQKPGQAPVLVIYEDAKRPSGIPERFSGSNSGNTATLTISGTQAEDEADYYCQSNDADAVWVFGGGTKLTVLG | 1.3 relative to CM-1
CM-93 (antibody, human IgG4 S228P, lambda, V domains shown) VH: EVQLVESGGGLVQPGGSLRLSCAASGFTFSDYAMSWVRQAPGKGLEWVSAISGSGGSTYYAASVKGRFTISRDNSKNTLYLQMNSLRAEDTAVYYCARKYRPSRVFDAWGQGTLVTVSS VL: SYELTQPPSVSVAPGQTARITCSGDALGDKYASWYQQKPGQAPVLVIYEDAKRPDGIPERFSGSNSGNTATLTISGTQAEDEADYYCQSNDADAYWVFGGGTKLTVLG | 0.953 relative to CM-1
CM-95 (antibody, human IgG4 S228P, lambda, V domains shown) VH: EVQLVESGGGLVQPGGSLRLSCAASGFTFSDYAMSWVRQAPGKGLEWVSAISGSGGSTYYAASVKGRFTISRDNSKNTLYLQMNSLRAEDTAVYYCARKYRPSRVFDAWGQGTLVTVSS VL: SYELTQPPSVSVAPGQTARITCSGDALGDKYASWYQQKPGQAPVLVIYEHHKRPSGIPERFSGSNSGNTATLTISGTQAEDEADYYCQSNDADAVWVFGGGTKLTVLG | 1.11 relative to CM-1
CM-90 (antibody, human IgG4 S228P, lambda, V domains shown) VH: EVQLVESGGGLVQPGGSLRLSCAASGFTFSDYAMSWVRQAPGKGLEWVSAISGSGGSTYYAASVKGRFTISRDNSKNTLYLQMNSLRAEDTAVYYCARKYRPSRVFDAWGQGTLVTVSS VL: SYELTQPPSVSVAPGQTARITCSGDALHDKYASWYQQKPGQAPVLVIYEDAKRPSGIPERFSGSNSGNTATLTISGTQAEDEADYYCQSNDADAVWVFGGGTKLTVLG | 1.54 relative to CM-1
CM-88 (antibody, human IgG4 S228P, lambda, V domains shown) VH: EVQLVESGGGLVQPGGSLRLSCAASGFTFSDYAMSWVRQAPGKGLEWVSAISGSGGSTYYAASVKGRFTISRDNSKNTLYLQMNSLRAEDTAVYYCARKYRPSRVFDAWGQGTLVTVSS VL: SYELTQPPSVSVAPGQTARITCSGDALGDKYASWYQQKPGQAPVLVIYEDAKRPSGIPERFSGSNSGNTATLTISGTQAEDEADYYCQSNDADARWVFGGGTKLTVLG | 1.01 relative to CM-1
CM-97 (antibody, human IgG4 S228P, lambda, V domains shown) VH: EVQLVESGGGLVQPGGSLRLSCAASGFTFSDYAMSWVRQAPGKGLEWVSAISGSGGSTYYAASVKGRFTISRDNSKNTLYLQMNSLRAEDTAVYYCARKYRPSRVFDAWGQGTLVTVSS VL: SYELTQPPSVSVAPGQTARITCSGDALGDKYASWYQQKPGQAPVLVIYEDAKRPYGIPERFSGSNSGNTATLTISGTQAEDEADYYCQSNDADAWWVFGGGTKLTVLG | 0.599 relative to CM-1
CM-98 (antibody, human IgG4 S228P, lambda, V domains shown) VH: EVQLVESGGGLVQPGGSLRLSCAASGFTFSDYAMSWVRQAPGKGLEWVSAISGSGGSTYYAASVKGRFTISRDNSKNTLYLQMNSLRAEDTAVYYCARKYRPSRVFDAWGQGTLVTVSS VL: SYELTQPPSVSVAPGQTARITCSGDALGDKYASWYQQKPGQAPVLVIYEDAKRPWGIPERFSGSNSGNTATLTISGTQAEDEADYYCQSNDADAWWVFGGGTKLTVLG | 0.703 relative to CM-1
CM-96 (antibody, human IgG4 S228P, lambda, V domains shown) VH: EVQLVESGGGLVQPGGSLRLSCAASGFTFSDYAMSWVRQAPGKGLEWVSAISGSGGSTYYAASVKGRFTISRDNSKNTLYLQMNSLRAEDTAVYYCARKYRPSRVFDAWGQGTLVTVSS VL: SYELTQPPSVSVAPGQTARITCSGDALGDKYMSWYQQKPGQAPVLVIYEDAKRPSGIPERFSGSNSGNTATLTISGTQAEDEADYYCQSNDADAWWVFGGGTKLTVLG | 1.47 relative to CM-1
CM-89 (antibody, human IgG4 S228P, lambda, V domains shown) VH: EVQLVESGGGLVQPGGSLRLSCAASGFTFSDYAMSWVRQAPGKGLEWVSAISGSGGSTYYAASVKGRFTISRDNSKNTLYLQMNSLRAEDTAVYYCARKYRPSRVFDAWGQGTLVTVSS VL: SYELTQPPSVSVAPGQTARITCSGDALGDKYASWYQQKPGQAPVLVIYEDAKRPSGIPERFSGSNSGNTATLTISGTQAEDEADYYCQSNDADAYWVFGGGTKLTVLG | 0.572 relative to CM-1
CM-94 (antibody, human IgG4 S228P, lambda, V domains shown) VH: EVQLVESGGGLVQPGGSLRLSCAASGFTFSDYAMSWVRQAPGKGLEWVSAISGSGGSTYYAASVKGRFTISRDNSKNTLYLQMNSLRAEDTAVYYCARKYRPSRVFDAWGQGTLVTVSS VL: SYELTQPPSVSVAPGQTARITCSGDALHDKYASWYQQKPGQAPVLVIYEHHKRPSGIPERFSGSNSGNTATLTISGTQAEDEADYYCQSNDADAVWVFGGGTKLTVLG | 2.81 relative to CM-1
CM-87 (antibody, human IgG4 S228P, lambda, V domains shown) VH: EVQLVESGGGLVQPGGSLRLSCAASGFTFSDYAMSWVRQAPGKGLEWVSAISGSGGSTYYAASVKGRFTISRDNSKNTLYLQMNSLRAEDTAVYYCARKYRPSRVFDAWGQGTLVTVSS VL: SYELTQPPSVSVAPGQTARITCSGDALGDKYASWYQQKPGQAPVLVIYEDAKRPSGIPERFSGSNSGNTATLTISGTQAEDEADYYCQSNDADAWWVFGGGTKLTVLG | 0.749 relative to CM-1
